For this assay, the target named is His-tagged luciferase, heat-aggregated on the BLI sensor [luciferase: P08659]. The experiment in a line: BLI; protein aggregate immobilised on the sensor (His-tagged luciferase on Ni-NTA); Ssa1 variant together with Sis1 WT in solution, 1 µM each unless specified differently; buffer A (25 mM Hepes-KOH pH 8.0, 75 mM KCl, 15 mM MgCl2) with 2 mM DTT and 5 mM ATP; the signal is that of both chaperones.

The values below come from PMC8670446.

Chain of Ssa1 (P10591 whole entry): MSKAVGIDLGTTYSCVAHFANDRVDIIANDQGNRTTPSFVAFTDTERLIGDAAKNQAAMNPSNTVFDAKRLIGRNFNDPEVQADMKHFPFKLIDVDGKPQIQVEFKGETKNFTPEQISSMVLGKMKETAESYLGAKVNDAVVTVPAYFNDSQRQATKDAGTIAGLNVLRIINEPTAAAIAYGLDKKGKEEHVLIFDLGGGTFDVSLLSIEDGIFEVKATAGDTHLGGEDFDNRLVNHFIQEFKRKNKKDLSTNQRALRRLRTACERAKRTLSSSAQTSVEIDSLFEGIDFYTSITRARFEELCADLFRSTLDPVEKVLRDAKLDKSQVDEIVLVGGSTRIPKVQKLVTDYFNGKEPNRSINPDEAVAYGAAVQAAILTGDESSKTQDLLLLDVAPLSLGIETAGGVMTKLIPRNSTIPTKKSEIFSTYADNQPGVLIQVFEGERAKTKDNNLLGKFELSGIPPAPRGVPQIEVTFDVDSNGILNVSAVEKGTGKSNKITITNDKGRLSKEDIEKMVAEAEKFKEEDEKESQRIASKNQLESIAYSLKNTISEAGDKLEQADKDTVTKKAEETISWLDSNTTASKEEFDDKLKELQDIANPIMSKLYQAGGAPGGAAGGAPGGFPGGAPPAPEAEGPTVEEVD
Chain of His-tagged luciferase, heat-aggregated on the BLI sensor [luciferase: P08659] (P08659 whole entry): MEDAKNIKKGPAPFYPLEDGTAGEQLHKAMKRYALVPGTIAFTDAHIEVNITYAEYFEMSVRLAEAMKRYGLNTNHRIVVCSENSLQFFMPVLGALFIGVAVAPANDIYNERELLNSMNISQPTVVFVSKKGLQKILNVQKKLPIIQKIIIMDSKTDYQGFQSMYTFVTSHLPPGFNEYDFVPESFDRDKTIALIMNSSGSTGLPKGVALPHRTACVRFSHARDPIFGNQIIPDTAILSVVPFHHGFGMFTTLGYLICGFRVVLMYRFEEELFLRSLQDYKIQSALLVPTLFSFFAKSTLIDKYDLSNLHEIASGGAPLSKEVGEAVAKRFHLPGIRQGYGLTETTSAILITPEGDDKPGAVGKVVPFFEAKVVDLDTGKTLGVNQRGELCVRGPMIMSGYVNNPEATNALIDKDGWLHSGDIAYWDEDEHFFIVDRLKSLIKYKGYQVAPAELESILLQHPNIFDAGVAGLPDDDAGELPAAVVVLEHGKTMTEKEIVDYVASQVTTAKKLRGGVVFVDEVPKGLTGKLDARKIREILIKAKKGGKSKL

Substance “Ssa1 (from UniProt P10591 1-642) (natural protein)” came in with a BLI layer thickness (Sis1 and Ssa1 together) of 7 nm.
